Usually EC50 stands for the concentration giving half of the maximal effect. A low value points to greater potency. For orientation: IC50 means the point on the concentration scale where inhibition reaches its midpoint. A higher IC50 goes with weaker potency in that assay. As usually defined, the Kd is a measure of binding affinity in units of concentration. Lower therefore signals higher affinity.

Results on one molecule are retold here after US20230399384A1 (University of Texas, published 2023).

Like-named read-outs stand apart in the source and are kept apart here.

Experiment [1] has as its target T1, sCoV2-RBD (Fc-tagged RBD of SARS-CoV-2 S protein) (SARS-CoV-2; human, UniProt P0DTC2 319-541). In words: ELISA titration on coated sCoV2-RBD. Background: In an ELISA, binding on a coated surface is turned into a signal by an enzyme label.
For experiment [2], the target named is SARS-CoV-2 S protein on live SARS-CoV-2-mNG reporter virus (SARS-CoV-2, UniProt P0DTC2 14-1273). In words: cell-based or functional assay.
Experiment [3] has as its target T1, sCoV2-RBD (Fc-tagged RBD of SARS-CoV-2 …). Put plainly: BLI (Octet) blocking of ACE2 binding to captured sCoV2-RBD. Background: BLI is a label-free optical method that tracks binding on a fibre tip over time.
Experiment [4] concerns the target T2, sCoV-RBD (Fc-tagged RBD of SARS-CoV S protein) (SARS-CoV; human, UniProt P59594 306-527). Put plainly: BLI (Octet) blocking of ACE2 binding to sCoV-RBD.
A further experiment addresses T3, S protein of MERS-CoV (MERS-CoV, UniProt K9N5Q8 18-1296).
T3 sequence: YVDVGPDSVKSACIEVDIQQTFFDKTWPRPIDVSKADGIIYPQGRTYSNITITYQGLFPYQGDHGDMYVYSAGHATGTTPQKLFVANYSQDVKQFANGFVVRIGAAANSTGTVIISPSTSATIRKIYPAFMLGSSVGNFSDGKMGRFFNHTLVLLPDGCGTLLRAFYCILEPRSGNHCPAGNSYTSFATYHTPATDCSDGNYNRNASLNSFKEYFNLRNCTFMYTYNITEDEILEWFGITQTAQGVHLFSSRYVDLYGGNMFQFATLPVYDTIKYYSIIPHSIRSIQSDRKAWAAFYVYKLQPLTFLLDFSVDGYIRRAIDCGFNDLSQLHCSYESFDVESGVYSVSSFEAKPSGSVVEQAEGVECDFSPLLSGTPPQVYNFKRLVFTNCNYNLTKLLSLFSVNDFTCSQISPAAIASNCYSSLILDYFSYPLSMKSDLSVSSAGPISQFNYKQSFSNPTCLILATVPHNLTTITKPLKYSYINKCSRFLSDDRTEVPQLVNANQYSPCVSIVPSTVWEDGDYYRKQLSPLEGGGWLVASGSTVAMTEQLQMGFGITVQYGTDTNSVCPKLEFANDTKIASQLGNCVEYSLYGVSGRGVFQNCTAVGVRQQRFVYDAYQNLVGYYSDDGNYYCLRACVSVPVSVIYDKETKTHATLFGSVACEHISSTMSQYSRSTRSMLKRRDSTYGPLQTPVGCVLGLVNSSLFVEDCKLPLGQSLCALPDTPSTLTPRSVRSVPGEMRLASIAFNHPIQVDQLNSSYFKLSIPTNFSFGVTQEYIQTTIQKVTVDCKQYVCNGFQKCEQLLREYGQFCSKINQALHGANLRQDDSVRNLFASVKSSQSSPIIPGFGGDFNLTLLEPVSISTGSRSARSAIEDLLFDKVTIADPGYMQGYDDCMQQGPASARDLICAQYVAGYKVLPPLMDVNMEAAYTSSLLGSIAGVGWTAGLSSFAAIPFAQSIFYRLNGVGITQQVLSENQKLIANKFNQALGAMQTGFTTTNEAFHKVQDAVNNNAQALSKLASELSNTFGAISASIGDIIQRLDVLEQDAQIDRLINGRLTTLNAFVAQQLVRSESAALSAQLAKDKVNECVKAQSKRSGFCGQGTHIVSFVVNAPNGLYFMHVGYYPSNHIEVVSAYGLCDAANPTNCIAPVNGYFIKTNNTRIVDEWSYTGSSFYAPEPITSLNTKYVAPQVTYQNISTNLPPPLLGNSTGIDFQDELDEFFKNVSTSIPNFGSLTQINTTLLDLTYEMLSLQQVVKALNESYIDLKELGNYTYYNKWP
In words: BLI kinetic binding (FIG. 28D).

Experiment [5] concerns the target T1, sCoV2-RBD (Fc-tagged RBD of SARS-CoV-2 …).
Experiment [6] has as its target trimeric prefusion S protein of SARS-CoV-2 (SARS-CoV-2, UniProt P0DTC2 14-1208).
Experiment [7] concerns the target T2, sCoV-RBD (Fc-tagged RBD of SARS-CoV S …).
The next experiment addresses S protein of SARS-CoV (SARS-CoV, UniProt P59594 14-1195).

B1: CoV2-12 (antibody, V domains shown)
VH: QVQLVESGGGVVQPGRSLRLSCVASGFTFSSYAMQWVRQAPGKGLEYVAVVSDDGNMKFYADSVKGRFTISRDNSRNTVSLQMNSLGVEDTAVYYCARENYFWSGSIGGLDYWGQGTLVSVSS
VL: not shown
Regarding B1, the values for the EC50 in experiment [1], in [5] and in [7] were 2.11 nM, 0.89 nM and 3.51 nM, respectively. For the same molecule, in [2], the “NC50 (neutralisation of reporter SARS-CoV-2, Vero E6 cells)” value was 18.2 µg/mL. Moreover, the IC50 in experiment [3] worked out at 2.13 µg/mL; in [4], 1.71 µg/mL. Moreover, in the experiment with S protein of MERS-CoV, the binding result is “no binding”. In addition, the Kd in [6] is 10.7 nM; with S protein of SARS-CoV, 9.95 nM.
